# B1: GST-SUV39H1(82-412) (protein)
# chain: CVRILKQFHKDLERELLRRHHRSKTPRHLDPSLANYLVQKAKQRRALRRWEQELNAKRSHLGRITVENEVDLDGPPRAFVYINEYRVGEGITLNQVAVGCECQDCLWAPTGGCCPGASLHKFAYNDQGQVRLRAGLPIYECNSRCRCGYDCPNRVVQKGIRYDLCIFRTDDGRGWGVRTLEKIRKNSFVMEYVGEIITSEEAERRGQIYDRQGATYLFDLDYVEDVYTVDAAYYGNISHFVNHSCDPNLQVYNVFIDNLDERLPRIAFFATRTIRAGEELTFDYNMQVDPVDMESTRMDSNFGLAGLPGSPKKRVRIECKCGTESCRKYLF
# B2: GST-CLR4(127-490) (protein)
# chain: KQSTALTTNDTSIILDDSLHTNSKKLGKTRNEVKEESQKRELVSNSIKEATSPKTSSILTKPRNPSKLDSYTHLSFYEKRELFRKKLREIEGPEVTLVNEVDDEPCPSLDFQFISQYRLTQGVIPPDPNFQSGCNCSSLGGCDLNNPSRCECLDDLDEPTHFAYDAQGRVRADTGAVIYECNSFCSCSMECPNRVVQRGRTLPLEIFKTKEKGWGVRSLRFAPAGTFITCYLGEVITSAEAAKRDKNYDDDGITYLFDLDMFDDASEYTVDAQNYGDVSRFFNHSCSPNIAIYSAVRNHGFRTIYDLAFFAIKDIQPLEELTFDYAGAKDFSPVQSQKSQQNRISKLRRQCKCGSANCRGWLFG
# Target: free histones (mixture of H1, H3, H2B, H2A and H4; Boehringer Mannheim)
protein,measurement,value
B1,HMTase activity,"The SU(VAR)3-9 family members assayed, SUV39H1, Suv39h2 and CLR4, displayed HMTase activity."
B2,HMTase activity,"The SU(VAR)3-9 family members assayed, SUV39H1, Suv39h2 and CLR4, displayed HMTase activity."

# From US20020039776
